# Patent US10653613B2, “Compositions comprising lysozyme hydrolysate for use in keratin-containing tissue” (DSM IP ASSETS B.V., priority 2013, dated 2020)
# How the values were obtained:
# [1] = Clinical trial: plasma Trp/LNAA ratio kinetics after a single drink; assay type: in vivo, humans
# Experimental: (§1) Lysozyme is rich in Trp. […] A product data sheet is attached as FIG. 6. Study Procedures
# (§2) Washout periods between treatments were at least three days. […] The study was composed of four visits.
# (§3) They then ingested one of the experimental drinks.
# (§4) Fluorescence-based detection is employed.
# (§5) • For Trp and LNAA determination in the blood: Approx. […] After mixing, 2 μl was injected on the column. Statistical Considerations Descriptive Statistics
# Plasma samples from each time point have been analysed for levels of Trp and LNAA, i.e. the sum of Val, Ile, Leu, Tyr, and Phe. The resulting Trp/LNAA ratio was plotted against time post consumption of the intervention product.
# [2] = human, in vivo
# Experimental: as §1, §2, §3, §4, §5
substance,measurement,setting,value
intact lysozyme: A hen egg-derived protein rich in Trp; naturally occurring food protein that has not been altered,Shape of the plasma Trp/LNAA ratio increase over time (in words),"[1]; FIG. 2, comparison of the three treatments",much slower increase
same,"dAUC (baseline-corrected AUC of Trp/LNAA ratios), mean","[1]; plasma, 0-240 min after single drink, healthy volunteers, baseline AUC subtracted",7.3
same,Cysteine AUC (average),[2],999.7
same,Cystine AUC (average),[2],10726.7
same,Glutathione AUC (average),[2],255.7
